What was measured:
[1] = target: TmZIP C-terminally fused to TEV-GFP-His10; assay: SDS-PAGE of the IMAC-pure protein
[2] = target: TmZIP N-terminally fused to His10-GFP-TEV; assay: SDS-PAGE of the IMAC-pure protein

| stoichiometry N [1] | stoichiometry N [2] | Substance |
| --- | --- | --- |
| 2 |  | TmZIP C-terminally fused to TEV-GFP-His10 (natural protein) |
|  | 2 | TmZIP N-terminally fused to His10-GFP-TEV (natural protein) |
